Source: publication PMC5039624 (Scientific Reports, 2016)
Bridge positions count the residues as written; N and C are the ends. Peptide text beside a SMILES is read from it.

Columns and labels:
[1] = Liposome centrifugation assay, POPG liposomes; assay type: physicochemical; settings: LUVs extruded through 0.1 μm filters, 10 mM HEPES pH 7.4, 150 mM NaCl; 10 μM toxin, 1 h room temperature, 30 min at 100,000 g; unbound toxin in supernatant by RP-HPLC; fit to partition equilibrium equation
Procedure: To investigate whether the micelle-binding interface identified by NMR-CSM faithfully reports on the lipid-binding interface of the peptide we used a previously reported liposome centrifugation assay[30] to study the interaction between VSTx1 and phospholipids with different head groups. VSTx1 was incubated with liposomes of different composition, then the liposomes were pelleted using ultracentrifugation and the amount of unbound VSTx1 in the supernatant was determined using reverse-phase (RP) HPLC (Fig. 4a,b). Partition coefficients (Kp) for binding of VSTx1 to liposomes were calculated by fitting to the partition equilibrium equation (see Eqn (3) in Materials and Methods). The Kp for binding to 1-palmitoyl-2-oleoyl-sn-glycero-3-phosphoglycerol (POPG) liposomes was 2.4 × 10^5 while the Kp values for binding to POPC or 1-palmitoyl-2-oleoyl-sn-glycero-3-phosphoethanolamine (POPE) liposomes were close to 0 (both <10^2) (Fig. 4e).
Large unilamellar vesicles (LUVs) were prepared by drying lipids (POPG and/or POPC, 25 mg/mL) under nitrogen gas, drying the lipid pellet under vacuum, and resuspending the lipids by vortexing for 1 h in an aqueous buffer containing 10 mM HEPES pH 7.4, and 150 mM NaCl. Vesicles were extruded 20 times using 0.1 μm polycarbonate filters (Avanti Polar Lipids, Inc.). Aqueous solutions of the toxin (10 μM) were incubated with varying amounts of vesicles for 1 h at room temperature, then the vesicles were centrifuged for 30 min at 100,000 g before the toxin concentration in the aqueous phase was determined. Aqueous concentrations of VSTx1 were quantified by RP-HPLC using a monolithic C18 column (4.6 × 100 mm). The toxin was eluted with a linear gradient of 10–50% solvent B (0.046% TFA in acetonitrile) in solvent A (0.05% TFA in water) over 10 min at a flow rate of 3 ml/min. The partition coefficients (Kp) for the binding of VSTx1 to liposomes were calculated by fitting to the partition equilibrium equation: […]

[2] = target: isolated voltage-sensor domain of the voltage-gated potassium channel KvAP (VSDK), wild type (UniProt Q9YDF8); experiment: pull-down
[3] = target: T1, isolated voltage-sensor domain of the voltage-gated potassium channel KvAP (VSDK), wild type (UniProt Q9YDF8 19-160); experiment: NMR titration; settings: both partners purified
T1 construct: also called WT VSDK; KvAP voltage sensor
T1 sequence: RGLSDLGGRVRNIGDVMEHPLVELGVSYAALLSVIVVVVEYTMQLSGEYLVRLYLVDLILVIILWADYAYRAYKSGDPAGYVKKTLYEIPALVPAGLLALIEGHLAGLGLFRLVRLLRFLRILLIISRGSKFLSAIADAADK

VSDK S51A = target: T2, VSDK S51A (UniProt Q9YDF8 19-160, S51A); experiment: pull-down; settings: both partners purified
T2 sequence: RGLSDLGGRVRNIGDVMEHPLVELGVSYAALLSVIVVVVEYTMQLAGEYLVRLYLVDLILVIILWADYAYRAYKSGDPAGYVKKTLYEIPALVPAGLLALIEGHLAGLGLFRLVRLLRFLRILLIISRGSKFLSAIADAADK

VSDK Y46A = target: T3, VSDK Y46A (UniProt Q9YDF8 19-160, Y46A); experiment: pull-down; settings: both partners purified
T3 sequence: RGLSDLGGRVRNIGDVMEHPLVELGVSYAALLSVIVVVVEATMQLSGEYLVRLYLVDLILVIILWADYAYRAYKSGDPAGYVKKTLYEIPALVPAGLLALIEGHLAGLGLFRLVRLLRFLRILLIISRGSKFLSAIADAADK

VSDK Q49A = target: T4, VSDK Q49A (UniProt Q9YDF8 19-160, Q49A); experiment: pull-down; settings: both partners purified
T4 sequence: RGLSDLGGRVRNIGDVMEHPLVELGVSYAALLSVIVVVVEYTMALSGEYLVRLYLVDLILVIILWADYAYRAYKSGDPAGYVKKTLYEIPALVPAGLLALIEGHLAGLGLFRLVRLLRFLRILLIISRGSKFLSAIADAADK

VSDK E107A = target: T5, VSDK E107A (UniProt Q9YDF8 19-160, E107A); experiment: pull-down; settings: both partners purified
T5 sequence: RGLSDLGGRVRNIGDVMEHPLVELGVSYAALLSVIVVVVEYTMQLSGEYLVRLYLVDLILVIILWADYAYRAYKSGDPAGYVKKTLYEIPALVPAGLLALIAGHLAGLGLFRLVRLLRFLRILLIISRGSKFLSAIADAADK

VSDK R120A = target: T6, VSDK R120A (UniProt Q9YDF8 19-160, R120A); experiment: pull-down; settings: both partners purified
T6 sequence: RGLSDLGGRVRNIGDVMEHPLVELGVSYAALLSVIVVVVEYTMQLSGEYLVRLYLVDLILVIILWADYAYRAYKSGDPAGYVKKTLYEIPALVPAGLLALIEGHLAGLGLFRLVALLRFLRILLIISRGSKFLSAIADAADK

VSDK T47A = target: T7, VSDK T47A (UniProt Q9YDF8 19-160, T47A); experiment: pull-down; settings: both partners purified
T7 sequence: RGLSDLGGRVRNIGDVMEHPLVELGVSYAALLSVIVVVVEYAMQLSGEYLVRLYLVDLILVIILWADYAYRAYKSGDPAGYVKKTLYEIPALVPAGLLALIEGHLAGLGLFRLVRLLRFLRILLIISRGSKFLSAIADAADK

VSDK E45A = target: T8, VSDK E45A (UniProt Q9YDF8 19-160, E45A); experiment: pull-down; settings: both partners purified
T8 sequence: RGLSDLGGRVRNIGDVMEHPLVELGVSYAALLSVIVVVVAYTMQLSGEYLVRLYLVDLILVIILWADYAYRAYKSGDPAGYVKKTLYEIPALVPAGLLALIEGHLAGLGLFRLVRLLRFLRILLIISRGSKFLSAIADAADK

## CSCC[C@@H]1NC(=O)[C@H](Cc2ccccc2)NC(=O)[C@H](CCCCN)NC(=O)CNC(=O)[C@@H](NC(=O)[C@H](CCC(=O)O)NC(=O)[C@@H](N)CO)CSSC[C@@H]2NC(=O)[C@@H]3CSSC[C@@H](C(=O)N[C@H](C(=O)N[C@@H](CC(C)C)C(=O)N[C@@H](C)C(=O)N[C@@H](CO)C(=O)N4CCC[C@H]4C(=O)N[C@@H](Cc4ccccc4)C(=O)O)C(C)C)NC(=O)[C@H](Cc4c[nH]c5ccccc45)NC(=O)[C@H](CCCCN)NC(=O)[C@H](Cc4c[nH]c5ccccc45)NC(=O)[C@H](CCCNC(=N)N)NC(=O)[C@H](CO)NC(=O)[C@H](CO)NC(=O)[C@H](CSSC[C@H](NC(=O)[C@H](C)NC(=O)[C@H](Cc4c[nH]c5ccccc45)NC1=O)C(=O)N[C@@H](CCCCN)C(=O)N[C@@H](CC(N)=O)C(=O)N[C@@H](CO)C(=O)N[C@@H](CC(N)=O)C(=O)N[C@@H](CC(=O)O)C(=O)N3)NC(=O)[C@H](C(C)C)NC(=O)[C@H](CC(C)C)NC(=O)[C@H](CC(=O)O)NC(=O)[C@H](CCCCN)NC2=O [K8A] (H-SECGKFMWACKNSNDCCKDLVCSSRWKWCVLASPF-OH; disulfide 3-17, 10-22, 16-29)
[1]
  Partition coefficient (Kp) for binding to POPG liposomes: 0.38 × 10^5

## CSCC[C@@H]1NC(=O)[C@H](Cc2ccccc2)NC(=O)[C@H](CCCCN)NC(=O)CNC(=O)[C@@H](NC(=O)[C@H](CCC(=O)O)NC(=O)[C@@H](N)CO)CSSC[C@@H]2NC(=O)[C@@H]3CSSC[C@@H](C(=O)N[C@H](C(=O)N[C@@H](C)C(=O)N[C@@H](C)C(=O)N[C@@H](CO)C(=O)N4CCC[C@H]4C(=O)N[C@@H](Cc4ccccc4)C(=O)O)C(C)C)NC(=O)[C@H](Cc4c[nH]c5ccccc45)NC(=O)[C@H](CCCCN)NC(=O)[C@H](Cc4c[nH]c5ccccc45)NC(=O)[C@H](CCCNC(=N)N)NC(=O)[C@H](CO)NC(=O)[C@H](CO)NC(=O)[C@H](CSSC[C@H](NC(=O)[C@H](CCCCN)NC(=O)[C@H](Cc4c[nH]c5ccccc45)NC1=O)C(=O)N[C@@H](CCCCN)C(=O)N[C@@H](CC(N)=O)C(=O)N[C@@H](CO)C(=O)N[C@@H](CC(N)=O)C(=O)N[C@@H](CC(=O)O)C(=O)N3)NC(=O)[C@H](C(C)C)NC(=O)[C@H](CC(C)C)NC(=O)[C@H](CC(=O)O)NC(=O)[C@H](CCCCN)NC2=O [L30A] (H-SECGKFMWKCKNSNDCCKDLVCSSRWKWCVAASPF-OH; disulfide 3-17, 10-22, 16-29)
[1]
  Partition coefficient (Kp) for binding to POPG liposomes: 0.55 × 10^5

## CSCC[C@@H]1NC(=O)[C@H](Cc2ccccc2)NC(=O)[C@H](CCCCN)NC(=O)CNC(=O)[C@@H](NC(=O)[C@H](CCC(=O)O)NC(=O)[C@@H](N)CO)CSSC[C@@H]2NC(=O)[C@@H]3CSSC[C@@H](C(=O)N[C@H](C(=O)N[C@@H](CC(C)C)C(=O)N[C@@H](C)C(=O)N[C@@H](CO)C(=O)N4CCC[C@H]4C(=O)N[C@@H](Cc4ccccc4)C(=O)O)C(C)C)NC(=O)[C@H](Cc4c[nH]c5ccccc45)NC(=O)[C@H](CCCCN)NC(=O)[C@H](Cc4c[nH]c5ccccc45)NC(=O)[C@H](CCCNC(=N)N)NC(=O)[C@H](CO)NC(=O)[C@H](CO)NC(=O)[C@H](CSSC[C@H](NC(=O)[C@H](CCCCN)NC(=O)[C@H](Cc4c[nH]c5ccccc45)NC1=O)C(=O)N[C@@H](CCCCN)C(=O)N[C@@H](CC(N)=O)C(=O)N[C@@H](CO)C(=O)N[C@@H](C)C(=O)N[C@@H](CC(=O)O)C(=O)N3)NC(=O)[C@H](C(C)C)NC(=O)[C@H](CC(C)C)NC(=O)[C@H](CC(=O)O)NC(=O)[C@H](CCCCN)NC2=O [N13A] (H-SECGKFMWKCKNSADCCKDLVCSSRWKWCVLASPF-OH; disulfide 3-17, 10-22, 16-29)
[1]
  Partition coefficient (Kp) for binding to POPG liposomes: 2.7 × 10^5

## CSCC[C@@H]1NC(=O)[C@H](Cc2ccccc2)NC(=O)[C@H](CCCCN)NC(=O)CNC(=O)[C@@H](NC(=O)[C@H](CCC(=O)O)NC(=O)[C@@H](N)CO)CSSC[C@@H]2NC(=O)[C@@H]3CSSC[C@@H](C(=O)N[C@H](C(=O)N[C@@H](CC(C)C)C(=O)N[C@@H](C)C(=O)N[C@@H](CO)C(=O)N4CCC[C@H]4C(=O)N[C@@H](Cc4ccccc4)C(=O)O)C(C)C)NC(=O)[C@H](Cc4c[nH]c5ccccc45)NC(=O)[C@H](CCCCN)NC(=O)[C@H](Cc4c[nH]c5ccccc45)NC(=O)[C@H](C)NC(=O)[C@H](CO)NC(=O)[C@H](CO)NC(=O)[C@H](CSSC[C@H](NC(=O)[C@H](CCCCN)NC(=O)[C@H](Cc4c[nH]c5ccccc45)NC1=O)C(=O)N[C@@H](CCCCN)C(=O)N[C@@H](CC(N)=O)C(=O)N[C@@H](CO)C(=O)N[C@@H](CC(N)=O)C(=O)N[C@@H](CC(=O)O)C(=O)N3)NC(=O)[C@H](C(C)C)NC(=O)[C@H](CC(C)C)NC(=O)[C@H](CC(=O)O)NC(=O)[C@H](CCCCN)NC2=O [R24A] (H-SECGKFMWKCKNSNDCCKDLVCSSAWKWCVLASPF-OH; disulfide 3-17, 10-22, 16-29)
[1]
  Partition coefficient (Kp) for binding to POPG liposomes: 0.11 × 10^5

## CSCC[C@@H]1NC(=O)[C@H](Cc2ccccc2)NC(=O)[C@H](CCCCN)NC(=O)CNC(=O)[C@@H](NC(=O)[C@H](CCC(=O)O)NC(=O)[C@@H](N)CO)CSSC[C@@H]2NC(=O)[C@@H]3CSSC[C@@H](C(=O)N[C@H](C(=O)N[C@@H](CC(C)C)C(=O)N[C@@H](C)C(=O)N[C@@H](CO)C(=O)N4CCC[C@H]4C(=O)N[C@@H](Cc4ccccc4)C(=O)O)C(C)C)NC(=O)[C@H](Cc4c[nH]c5ccccc45)NC(=O)[C@H](CCCCN)NC(=O)[C@H](Cc4c[nH]c5ccccc45)NC(=O)[C@H](CCCNC(=N)N)NC(=O)[C@H](CO)NC(=O)[C@H](CO)NC(=O)[C@H](CSSC[C@H](NC(=O)[C@H](CCCCN)NC(=O)[C@H](C)NC1=O)C(=O)N[C@@H](CCCCN)C(=O)N[C@@H](CC(N)=O)C(=O)N[C@@H](CO)C(=O)N[C@@H](CC(N)=O)C(=O)N[C@@H](CC(=O)O)C(=O)N3)NC(=O)[C@H](C(C)C)NC(=O)[C@H](CC(C)C)NC(=O)[C@H](CC(=O)O)NC(=O)[C@H](CCCCN)NC2=O [W7A] (H-SECGKFMAKCKNSNDCCKDLVCSSRWKWCVLASPF-OH; disulfide 3-17, 10-22, 16-29)
[1]
  Partition coefficient (Kp) for binding to POPG liposomes: 0.77 × 10^5

## VSTx1 K8A (peptide)
[2]
  percent decrease in binding against wild-type VSTx1: 20%

## VSTx1 W7A (peptide)
[2]
  percent decrease in binding against wild-type VSTx1: 58%

B1: VSTx1 (recombinant, wild type) (peptide)
chain: SECGKFMWKCKNSNDCCKDLVCSSRWKWCVLASPF
notes: also called WT VSTx1; spider-venom peptide VSTx1; not shown: His6, N-terminal, cleaved; MBP, N-terminal, cleaved
[3]
  Kd: 140 µM
VSDK S51A
  binding result: binds
VSDK Y46A
  binding result: binds
VSDK Q49A
  percent decrease in binding against wild-type VSDK: 58%
VSDK E107A
  percent decrease in binding against wild-type VSDK: 59%
VSDK R120A
  binding result: binds
VSDK T47A
  binding result: binds
VSDK E45A
  percent decrease in binding against wild-type VSDK: 65%
